In PMC7190841 (Scientific Reports, 2020):

Assays:
[1] = Pharmacokinetics after s.c. injection in mice; format: in vivo; conditions: mouse; for t1/2 / Cmax: mean [95% CI]; for t1/2 / tmax / Cmax: n = 15; for tmax: median; for Cmax: sparse sampling 0-240 min, population PK and non-compartment analysis
Description: Pharmacokinetic (PK) parameters were estimated from the two experiments with sparse sampling (three blood samples per mouse) for 0–240 min. Initially, population PK models[25] for each compound was developed in Nonmem (Icon, Dublin, Ireland) and approximately 60 individual post-hoc concentration-time data points per mouse was subjected to non-compartment analysis.

L6hIR cells = experiment: Mitogenic potency from thymidine-incorporation in L6hIR cells; format: cell-based, rat; conditions: weighted mean [95% CI], at least three independent experiments
Description: (§1) Fitting of dose-response curves describing thymidine-incorporation in vitro and activation of IR and IGF-1R, including calculation of EC50 values, were conducted with GraphPad Prism (GraphPad Software Inc., La Jolla, CA, USA).
(§2) H4IIE cells (ATCC, Manassas, VA, USA) were cultured in minimum essential medium (MEM) (Gibco) supplemented with 10% (v/v) FBS, 100 µg/ml penicillin and 100 U/ml streptomycin, 1% (v/v) MEM non-essential amino acids and 1% (v/v) pyruvate (all from Gibco).

[2] = system: IR and IGF-1R in L6hIR xenografts; experiment: Acute activation of IR and IGF-1R in L6hIR xenografts in vivo; parameters: species or system mouse; conditions: experiment A; 300 nmol/kg s.c., single treatment, euthanized 20 min later; n = 7-8
Description: Male BALB/c nude mice (CAnN.Cg-Foxn1 nu/Crl) were purchased from Charles River (Charles River Laboratories Germany, Sulzfeld, Germany) at age of seven weeks and housed five mice per cage in individually ventilated Techniplast GR 900 Seal Safe Plus cages, with unrestricted access to a complete pelleted rodent diet (Altromin 1324, Brogården, Hørsholm, Denmark) and tap water (non-chlorinated, non-acidified). In the animal room the temperature was 18–24 °C, with relative humidity at 30–70%, air change 8–15 times/h and a light-dark cycle of 12/12 h. All mice were acclimatized for 10 days before experiments were started. On day 0, all mice were injected s.c. in the right flank with 2.5 million L6hIR (six experiments) or L6 cells (one experiment), suspended in 0.1 ml PBS. On the same day treatment with vehicle or test compounds was started and continued either once or twice daily until the end of the experiment (Supplementary Table S5). […]
L6hIR cell xenograft samples were lysed in cell extraction buffer as described previously[10]. Protein concentration of cell and xenograft lysates was assessed with Pierce BCA protein assay kit (Thermo Fisher Scientific, Hvidovre, Denmark), according to the manufacturer’s instructions.

H4IIE cells = experiment: Mitogenic potency from thymidine-incorporation in H4IIE cells; format: cell-based, rat; conditions: weighted mean [95% CI], at least three independent experiments
Description: as §1, §2

[3] = Lowering of blood glucose in mice with L6hIR xenografts; format: in vivo, mouse; conditions: 300 or 600 nmol/kg s.c., experiment D
Description: Blood glucose and plasma concentrations of test compounds and endogenous mouse insulin were assessed as described previously[10].

P-IR(Tyr1158) = biological target: T1, P-IR(Tyr1158) (Homo sapiens, UniProt P06213); experiment: Activation of IR in L6hIR cells in vitro, sandwich ELISA; format: cell-based; conditions: ligands 0-1000 nM for 30 min, 0.1% human serum albumin, three replicates
T1 construct: expressed in transfected cells; host or cells: rat L6 myoblast cells (L6hIR, generated at Novo Nordisk)
Description: L6hIR cells were seeded in 12-well plates and grown until 90–100% confluence in DMEM (Gibco, Invitrogen, Carlsbad, CA, USA). Cells were stimulated with increasing concentrations of ligands (0–1000 nM) for 30 min in DMEM (Gibco) medium containing 0.1% human serum albumin. Subsequently, cells were washed three times in ice-cold phosphate buffered saline (PBS) and snap-frozen by pouring liquid nitrogen into the wells. Cells were lysed in 100 µL lysis buffer (cell extraction buffer from BioSource, Invitrogen, Carlsbad, CA, USA; supplemented with 1 mmol/l 4-(2-aminoethyl)benzenesulfonyl fluoride hydrochloride, and protease inhibitor cocktail from Sigma-Aldrich).
as §1

[4] = s.c., range over doses of 300 and 600 nmol/kg of HI and IX10

T1 sequence (P06213 28-1370 isoform P06213-2 limits assumed): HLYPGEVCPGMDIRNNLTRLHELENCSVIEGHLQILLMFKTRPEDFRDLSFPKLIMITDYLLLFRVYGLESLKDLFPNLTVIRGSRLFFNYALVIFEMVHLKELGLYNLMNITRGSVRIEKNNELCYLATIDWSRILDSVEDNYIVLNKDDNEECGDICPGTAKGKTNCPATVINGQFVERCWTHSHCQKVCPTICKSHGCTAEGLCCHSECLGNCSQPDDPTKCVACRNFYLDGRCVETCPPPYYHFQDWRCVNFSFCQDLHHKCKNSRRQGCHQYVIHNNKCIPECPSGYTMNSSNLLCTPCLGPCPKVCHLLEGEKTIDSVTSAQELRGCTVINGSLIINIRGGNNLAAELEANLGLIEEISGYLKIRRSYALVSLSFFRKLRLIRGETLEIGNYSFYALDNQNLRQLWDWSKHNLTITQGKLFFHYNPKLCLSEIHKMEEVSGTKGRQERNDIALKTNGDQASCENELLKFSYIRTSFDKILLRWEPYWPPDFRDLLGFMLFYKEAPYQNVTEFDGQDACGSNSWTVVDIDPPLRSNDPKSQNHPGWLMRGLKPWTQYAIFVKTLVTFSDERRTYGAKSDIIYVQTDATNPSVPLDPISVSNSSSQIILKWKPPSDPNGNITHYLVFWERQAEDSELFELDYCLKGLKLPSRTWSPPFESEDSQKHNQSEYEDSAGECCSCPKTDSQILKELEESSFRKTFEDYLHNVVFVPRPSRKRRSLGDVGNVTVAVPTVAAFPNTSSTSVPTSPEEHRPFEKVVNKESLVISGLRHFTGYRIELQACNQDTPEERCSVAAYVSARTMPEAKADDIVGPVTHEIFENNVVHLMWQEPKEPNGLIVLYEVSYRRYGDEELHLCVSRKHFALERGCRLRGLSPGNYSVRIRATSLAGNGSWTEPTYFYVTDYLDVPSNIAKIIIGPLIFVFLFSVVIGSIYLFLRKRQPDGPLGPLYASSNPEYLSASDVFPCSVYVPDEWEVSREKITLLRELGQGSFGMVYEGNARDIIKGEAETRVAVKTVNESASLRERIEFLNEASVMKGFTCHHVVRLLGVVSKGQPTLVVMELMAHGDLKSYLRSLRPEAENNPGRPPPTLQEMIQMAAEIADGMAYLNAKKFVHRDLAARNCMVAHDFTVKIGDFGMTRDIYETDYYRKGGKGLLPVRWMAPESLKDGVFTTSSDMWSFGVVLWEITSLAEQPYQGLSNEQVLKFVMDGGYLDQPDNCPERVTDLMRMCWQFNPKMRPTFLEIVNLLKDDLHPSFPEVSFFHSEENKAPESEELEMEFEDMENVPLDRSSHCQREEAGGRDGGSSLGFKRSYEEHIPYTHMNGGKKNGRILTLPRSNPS
T1 sequence (P06213 763-1382 partner limits assumed): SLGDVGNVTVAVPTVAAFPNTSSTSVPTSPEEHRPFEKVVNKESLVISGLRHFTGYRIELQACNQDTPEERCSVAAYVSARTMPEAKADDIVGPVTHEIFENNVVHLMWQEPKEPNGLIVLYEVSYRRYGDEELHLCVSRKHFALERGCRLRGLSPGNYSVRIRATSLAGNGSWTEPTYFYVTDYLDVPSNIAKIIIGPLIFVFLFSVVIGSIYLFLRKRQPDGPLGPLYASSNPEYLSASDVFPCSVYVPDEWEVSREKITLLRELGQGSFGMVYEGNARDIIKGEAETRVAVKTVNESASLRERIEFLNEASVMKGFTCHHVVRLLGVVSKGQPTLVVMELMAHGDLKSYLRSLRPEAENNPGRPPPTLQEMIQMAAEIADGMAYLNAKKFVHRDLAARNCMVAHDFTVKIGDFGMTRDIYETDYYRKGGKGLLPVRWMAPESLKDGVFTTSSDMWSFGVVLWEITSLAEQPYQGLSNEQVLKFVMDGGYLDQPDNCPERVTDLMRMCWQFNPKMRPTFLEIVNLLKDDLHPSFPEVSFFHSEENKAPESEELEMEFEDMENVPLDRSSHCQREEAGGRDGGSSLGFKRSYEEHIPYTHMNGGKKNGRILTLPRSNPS

| EC50 (P-IR(Tyr1158)) [µM] | Substance | t1/2 ([1]; 300 nmol/kg s.c., experiment H) | tmax ([1]; 300 nmol/kg s.c., experiment H) [min] | Cmax ([1]; 300 nmol/kg s.c., experiment H) | t1/2 ([1]; 600 nmol/kg s.c., experiment I) | tmax ([1]; 600 nmol/kg s.c., experiment I) [min] | Cmax ([1]; 600 nmol/kg s.c., experiment I) | elimination half-life [1, 4] [min] | maximum plasma concentration [1, 4] [nmol/L] | time of maximum plasma concentration after s.c. injection [1, 4] [min] | mitogenic potency L6hIR cells (% of HI) (L6hIR cells) | Activation of IR and IGF-1R in L6hIR xenografts in vivo [2] | mitogenic potency H4IIE cells (% of HI) (H4IIE cells) | Duration of decreased blood glucose [3] [h] |
| --- | --- | --- | --- | --- | --- | --- | --- | --- | --- | --- | --- | --- | --- | --- |
|  | human insulin [HI] | 96 [85 ; 107] min | 11 | 725.7 [654.0 ; 797.4] nmol/l | 52 [48 ; 56] min | 17 | 812.5 [761.7 ; 863.4] nmol/l | 60 to 90 | 500 to 850 | 11 to 17 | 100 % of HI | acute activation of IR and IGF-1R | 100 % of HI | 4 to 6 |
| 0.0258 | IGF-1: human IGF-1, reference ligand in receptor activation assays |  |  |  |  |  |  |  |  |  |  |  |  |  |
